In PMC7445300:

Target: GST-DNMT1-N (UniProt P26358)
Assay: pull-down; GST-tagged proteins on Glutathione Sepharose beads incubated with acid-extracted core histones from HEK293T cells transfected with FLAG-H3 or FLAG-H2B and UHRF1 (S phase); 25 mM Tris-HCl pH 8.0, 150 mM NaCl, 1% NP-40, 2 mM EDTA, 1 mM DTT, 4 °C, 3 h; WB with anti-FLAG

| fold enrichment of the ubiquitinated histone in the pull-down | Substance |
| --- | --- |
| 20 fold | ubiquitinated FLAG-H3 (from UniProt P0CG48 1-76) |
| 4.9 fold | ubiquitinated FLAG-H2B (from UniProt P0CG48 1-76) |
